Like-named read-outs stand apart in the source and are kept apart here.
Legend:
human VEGFA165 [1] = target: T1, human VEGFA165 (human, UniProt P15692-4 27-191); assay: competitive ELISA, coated VEGFA, competitor VEGFR2-ECD-Fc 1 nM
T1 construct: Bought protein from two suppliers, treated as one molecule; the supplier is named under assay; also called antigen VEGFA
Description: (§1) Antigen VEGFA was diluted with ELISA coating buffer (final concentration of […]) and added to a 96-well microplate at 100 μL/well for coating at 4° C. overnight. […] The plate was incubated at 37° C. for 1 h and washed 3 times with PBST. Subsequently, a dilution of HRP-labeled goat anti-human IgG antibody (HRP-conjugated Goat Anti-Human IgG, purchased from Proteintech, Cat. No.: A21050) was added, and the plate was further incubated at room temperature for 45 min. After the plate was washed, 100 μL of TMB (purchased from Tiangen Biotech, Cat. No.: PA107-01) was added to each well for color development at 37° C. for 15 min, followed by the addition of 50 μL of stopping solution. The absorbance at 450 nm (OD450) was measured using a microplate reader.

human VEGFA165 [2] = target: T1, human VEGFA165; assay: ELISA, coated human VEGFA165, anti-His detection
Description: (§2) Antigen human VEGFA165 (label-free, purchased from Sino Biological, Cat. No.: HPLC-10008-HNAH, hereinafter referred to as VEGFA) was diluted with ELISA coating buffer to a final concentration of 0.3 μg/mL and added to a microplate at 100 μL/well for coating at 4° C. overnight. […] The solution used for antibody dilution was PBS containing 0.1% Tween-20 (pH 7.4), i.e., PBST. After being incubated at 37° C. for 1 h, the microplate was washed 3 times with PBST, and a dilution of His-Tag murine monoclonal antibody (purchased from Proteintech, Cat. No.: 66005-1-Ig) was added. The plate was further incubated at 37° C. for 1 h and washed again. Subsequently, a dilution of HRP-labeled goat anti-mouse IgG antibody (HRP-conjugated Affinipure Goat Anti-Mouse IgG (H+L), purchased from Proteintech, Cat. No.: SA00001-1) was added, and the plate was incubated at room temperature for 45 min. After the plate was washed, 100 μL of TMB (purchased from Tiangen Biotech, Cat. No.: PA107-01) was added to each well for color development at 37° C. for 15 min, followed by the addition of 50 μL of stopping solution. The absorbance at 450 nm (OD450) was measured using a microplate reader.

human VEGFA165 [3] = target: T1, human VEGFA165; assay: SPR Biacore 8K, VEGFA165 on CM5, nanobody analyte, 1:1 fit
Description: Using the Biacore 8K instrument (Cytiva), the antigen VEGFA165 (label-free, purchased from Sino Biological, Cat. No.: HPLC-10008-HNAH) as the ligand was coupled onto a CM5 chip through amino-coupling reagents (EDC and NHS), with the coupling level being about 400 RU. The mobile phase buffer was HBS-EP (0.01 M HEPES pH 7.4, 0.15 M NaCl, 3 mM EDTA, 0.005% v/v Tween 20) during the experiment. […] In the kinetic analysis, the binding time between the antigen and the antibody was 240 s, the dissociation time was 1500 s, and the flow rate was 30 μL/min. In a multi-cycle mode, the chip was regenerated with 100 mM hydrochloric acid.

human VEGFA165 [4] = target: T1, human VEGFA165; assay: ELISA, coated human VEGFA165, anti-His detection; remark: listed apart in the source
Description: as §2
The experimental procedure was the same as that described in “2.

human VEGFA165 [5] = target: T1, human VEGFA165; assay: ELISA, coated human VEGFA165, anti-His detection; remark: listed apart in the source
Description: as §2

human VEGFA165 [6] = target: T1, human VEGFA165; assay: competitive ELISA, coated VEGFA, competitor VEGFR2-ECD-Fc 1 nM; remark: listed apart in the source
human VEGFA165 [7] = target: T1, human VEGFA165; assay: ELISA, coated human VEGFA165, anti-His detection; remark: listed apart in the source
Description: as §2

human VEGFA165 [8] = target: T1, human VEGFA165; assay: competitive ELISA, coated VEGFA, competitor VEGFR2-ECD-Fc 1 nM; remark: listed apart in the source
Description: as §1

T1 sequence (P15692 other isoform, or with tags, fused parts or gaps limits assumed): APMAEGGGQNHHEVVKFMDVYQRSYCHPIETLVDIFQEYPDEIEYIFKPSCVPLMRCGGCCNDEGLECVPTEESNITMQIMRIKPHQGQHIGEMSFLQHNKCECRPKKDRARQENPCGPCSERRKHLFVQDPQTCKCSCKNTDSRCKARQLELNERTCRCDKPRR

| IC50 (human VEGFA165 [1]) | EC50 (human VEGFA165 [2]) | EC50 (human VEGFA165 [4]) | Binder | other results |
| --- | --- | --- | --- | --- |
| 1.97 nM | 0.27 nM | – | 2V41-9GS (VHH, Tandem bivalent nanobody) QLQLVESGGGSVQPGGSLRLSCEVSGRTFSSYTMGWFRQAPGKEREFVVAISKGGYKYDSVSLEARFTISKDNTKNTVYLQMNSLKPEDTAVYYCAGTRAYGSSRLRLAKTYEYWGQGTQVTVSSGGGGSGGGSQLQLVESGGGSVQPGGSLRLSCEVSGRTFSSYTMGWFRQAPGKEREFVVAISKGGYKYDSVSLEARFTISKDNTKNTVYLQMNSLKPEDTAVYYCAGTRAYGSSRLRLAKTYEYWGQGTQVTVSS | – |
| 3.48 nM | 0.32 nM | – | 2V33-9GS (VHH, Tandem bivalent nanobody) QLQLVESGGGSVQPGGSLRLSCEVSGRTFSSYTMGWFRQAPGKEREFVVAISKGGYKYDSVSLEARFTISKDNTKNTVYLQMNSLKPEDTAVYYCAATRAYGSSRLRLAKTYEYWGQGTQVTVSSGGGGSGGGSQLQLVESGGGSVQPGGSLRLSCEVSGRTFSSYTMGWFRQAPGKEREFVVAISKGGYKYDSVSLEARFTISKDNTKNTVYLQMNSLKPEDTAVYYCAATRAYGSSRLRLAKTYEYWGQGTQVTVSS | – |
| 1.77 nM | 0.31 nM | – | 2V29-9GS (VHH, Tandem bivalent nanobody) QLQLVESGGGSVQPGGSLRLSCEVSGRTFSSYTMGWFRQAPGKEREFVVAISKGGYKYDSVSLEARFTISKDNTKNTVYLQMNSLKPEDTAVYYCAGTRAYGSSRLRLANTYEYWGQGTQVTVSSGGGGSGGGSQLQLVESGGGSVQPGGSLRLSCEVSGRTFSSYTMGWFRQAPGKEREFVVAISKGGYKYDSVSLEARFTISKDNTKNTVYLQMNSLKPEDTAVYYCAGTRAYGSSRLRLANTYEYWGQGTQVTVSS | – |
| 1.41 nM | 0.25 nM | – | 2V30-9GS (VHH, Tandem bivalent nanobody) QLQLVESGGGSVQPGGSLRLSCEVSGRTFSSYTMGWFRQAPGKGREFVVAISKGGYKYDAVSLEARFTISKDNTKNTVYLQMNSLKPEDTAVYYCAATRAYGSSRLRLAKTYEYWGQGTQVTVSSGGGGSGGGSQLQLVESGGGSVQPGGSLRLSCEVSGRTFSSYTMGWFRQAPGKGREFVVAISKGGYKYDAVSLEARFTISKDNTKNTVYLQMNSLKPEDTAVYYCAATRAYGSSRLRLAKTYEYWGQGTQVTVSS | Kd (human VEGFA165 [3]): 0.0222 nM; koff (human VEGFA165 [3]): 9.29e-05 s⁻¹; kon (human VEGFA165 [3]): 4.18e+06 M⁻¹ s⁻¹ |
| – | 0.31 nM | 0.31 nM | 2V31-9GS (VHH, Tandem bivalent nanobody) QLQLVESGGGSVQPGGSLRLSCEVSGRTFASYTMGWFRQAPGKEREFVVAISKGGYKYDAVSLEARFTISKDNTKNTVYLQMNSLKPEDTAVYYCAGTRAYGSSRLRLAKTYEYWGQGTQVTVSSGGGGSGGGSQLQLVESGGGSVQPGGSLRLSCEVSGRTFASYTMGWFRQAPGKEREFVVAISKGGYKYDAVSLEARFTISKDNTKNTVYLQMNSLKPEDTAVYYCAGTRAYGSSRLRLAKTYEYWGQGTQVTVSS | – |
| – | 0.17 nM | 0.17 nM | 2V43-9GS (VHH, Tandem bivalent nanobody) QLQLVESGGGSVQPGGSLRLSCEVSGRTFTSYTMGWFRQAPGKEREFVVAISKGGYKYDSVSLEARFTISKDNTKNTVYLQMNSLKPEDTAVYYCAGTRAYGSSRLRLANTYEYWGQGTQVTVSSGGGGSGGGSQLQLVESGGGSVQPGGSLRLSCEVSGRTFTSYTMGWFRQAPGKEREFVVAISKGGYKYDSVSLEARFTISKDNTKNTVYLQMNSLKPEDTAVYYCAGTRAYGSSRLRLANTYEYWGQGTQVTVSS | – |
| 3 nM | 0.3 nM | – | 2V36-9GS (VHH, Tandem bivalent nanobody) QLQLVESGGGSVQPGGSLRLSCEVSGRTFASYTMGWFRQAPGKEREFVVAISKGGYKYDSVSLEARFTISKDNTKNTVYLQMNSLKPEDTAVYYCAGTRAYGSSRLRLADTYEYWGQGTQVTVSSGGGGSGGGSQLQLVESGGGSVQPGGSLRLSCEVSGRTFASYTMGWFRQAPGKEREFVVAISKGGYKYDSVSLEARFTISKDNTKNTVYLQMNSLKPEDTAVYYCAGTRAYGSSRLRLADTYEYWGQGTQVTVSS | – |
| 2.07 nM | 0.24 nM | 0.24 nM | 2V15-9GS (VHH, Tandem bivalent nanobody) QLQLVESGGGSVQPGGSLRLSCEVSGRTFASYTMGWFRQAPGKEREFVVAISKGGYKYDSVSLEARFTISKDNTKNTVYLQMNSLKPEDTAVYYCAGTRAYGSSRLRLAETYEYWGQGTQVTVSSGGGGSGGGSQLQLVESGGGSVQPGGSLRLSCEVSGRTFASYTMGWFRQAPGKEREFVVAISKGGYKYDSVSLEARFTISKDNTKNTVYLQMNSLKPEDTAVYYCAGTRAYGSSRLRLAETYEYWGQGTQVTVSS | EC50 (human VEGFA165 [5]): 0.25 nM; IC50 (human VEGFA165 [6]): 3.13 nM; Maximum inhibition rate (%) (human VEGFA165 [6]): 88.4%; EC50 (human VEGFA165 [7]): 0.22 nM; IC50 (human VEGFA165 [8]): 3.61 nM |
| 2.97 nM | 0.09 nM | 0.09 nM | 2V1-9GS (VHH, Tandem bivalent nanobody) QLQLVESGGGSVQPGGSLRLSCEVSGRTFSSYTMGWFRQAPGKEREFVVAISKGGYKYDSVSLEARFTISKDNTKNTVYLQMNSLKPEDTAVYYCAATRAYGSSRLRLADTYEYWGQGTQVTVSSGGGGSGGGSQLQLVESGGGSVQPGGSLRLSCEVSGRTFSSYTMGWFRQAPGKEREFVVAISKGGYKYDSVSLEARFTISKDNTKNTVYLQMNSLKPEDTAVYYCAATRAYGSSRLRLADTYEYWGQGTQVTVSS | Kd (human VEGFA165 [3]): 0.0224 nM; koff (human VEGFA165 [3]): 5.05e-05 s⁻¹; kon (human VEGFA165 [3]): 2.25e+06 M⁻¹ s⁻¹ |
| – | – | 1 nM | V15 (VHH, Monovalent nanobody; tag not described here, the ELISA detects a His tag) VHH: QLQLVESGGGSVQPGGSLRLSCEVSGRTFASYTMGWFRQAPGKEREFVVAISKGGYKYDSVSLEARFTISKDNTKNTVYLQMNSLKPEDTAVYYCAGTRAYGSSRLRLAETYEYWGQGTQVTVSS | IC50 (human VEGFA165 [8]): 6.65 nM |
| – | – | 0.31 nM | V43 (VHH, Monovalent nanobody; tag not described here, the ELISA detects a His tag) VHH: QLQLVESGGGSVQPGGSLRLSCEVSGRTFTSYTMGWFRQAPGKEREFVVAISKGGYKYDSVSLEARFTISKDNTKNTVYLQMNSLKPEDTAVYYCAGTRAYGSSRLRLANTYEYWGQGTQVTVSS | Kd (human VEGFA165 [3]): 0.116 nM; koff (human VEGFA165 [3]): 8.63e-05 s⁻¹; kon (human VEGFA165 [3]): 743000 M⁻¹ s⁻¹ |

From patent US20260234232A1 (QUAERITE BIOPHARM RESEARCH BEIJING, published 2026)
